Experimental data published in CN109776679A.

Target: T1, 丝氨酸蛋白酶抑制因子SPINK1的第10-19个氨基酸片段 (synthetic SPINK1 peptide, aa 10-19)
T1 sequence (peptide): SALALLSLSG
Assay: antibody titer; method and coated antigen not stated there, taken to be ELISA on the coated immunogen peptide

B1: 单克隆抗体KZN2 (monoclonal antibody against SPINK1 produced by hybridoma CGMCC No.15800) (antibody, V domains shown)
VH: QVQLQQSGGGLVQPGGAMKLSCTASGFTFSDAWMYWVRQSPEKGLEWVAEIRNKAYNHATYYAESVKGRFTISGDDSKSSVYLQMNSLRAEDTGIYYCTTYDYWGQGTTVTVSS
VL: DIVMTQSPLSLPVSLGDQASISCRSSQSLVHGDGNTYLHWYLQKPGQSPNLLIYKISNRFSGVPDRFSGSGSGTDFTLKISRVEAEDLGVYFCSQNTHVPRTFGGGTKLEIK
- 抗体最低作用浓度: 0.0825 µg/mL
- 效价 (dilution factor (1:x)): 4000
